Four molecules from article PMC9482650, “Quantitative fragmentomics allow affinity mapping of interactomes” (Nature Communications, 2022) can be followed below.

Test in all cases: holdup assay
Common to all, as to design: key: below the threshold = too weak to quantify, mostly under pKd 3.1 to 4

Assay [1] has as its target T1, DFNB31_1, Q9P202.
T1 sequence (Q9P202 135-233, limits assumed, looked up): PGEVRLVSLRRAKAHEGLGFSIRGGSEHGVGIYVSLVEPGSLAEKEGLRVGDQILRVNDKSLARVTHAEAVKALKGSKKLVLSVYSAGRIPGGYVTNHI

For assay [2], the target named is Inadl_8, Q8NI35.
The target in assay [3] is GRIP2_4, Q9C0E4.
Assay [4] concerns the target T2, TX1BP3, O14907.
T2 sequence (O14907 10-122, limits assumed, looked up): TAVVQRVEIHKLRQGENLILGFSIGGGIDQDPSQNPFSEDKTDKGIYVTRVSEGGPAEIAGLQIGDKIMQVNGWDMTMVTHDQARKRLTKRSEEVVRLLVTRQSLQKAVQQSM

For assay [5], the target named is T3, PDZD2_2, O15018.
T3 sequence (O15018 329-429, limits assumed, looked up): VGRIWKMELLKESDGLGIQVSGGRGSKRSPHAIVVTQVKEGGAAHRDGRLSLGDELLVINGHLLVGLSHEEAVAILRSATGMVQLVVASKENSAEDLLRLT

The target of assay [6] is MAGI2_4, Q86UL8.
Assay [7] concerns the target NHERF4_1, Q86UT5-2.
Assay [8] has as its target SCRIB_3, Q14160.
The target of assay [9] is MAGI1_1, Q96QZ7.
The target of assay [10] is DLG1_1, Q12959.
Assay [11] addresses T4, GRIP1_4, Q9Y3R0.
T4 sequence (Q9Y3R0 467-571, limits assumed, looked up): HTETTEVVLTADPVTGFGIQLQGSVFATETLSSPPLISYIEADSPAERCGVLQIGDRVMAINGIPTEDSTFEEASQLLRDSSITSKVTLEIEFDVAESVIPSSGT

Assay [12] addresses T5, RADIL, Q96JH8.
T5 sequence (Q96JH8 971-1071, limits assumed, looked up): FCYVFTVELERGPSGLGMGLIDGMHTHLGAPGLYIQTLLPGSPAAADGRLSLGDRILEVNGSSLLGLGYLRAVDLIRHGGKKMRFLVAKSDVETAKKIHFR

For assay [13], the target named is T6, SNTG2, Q9NY99.
T6 sequence (Q9NY99 68-166, limits assumed, looked up): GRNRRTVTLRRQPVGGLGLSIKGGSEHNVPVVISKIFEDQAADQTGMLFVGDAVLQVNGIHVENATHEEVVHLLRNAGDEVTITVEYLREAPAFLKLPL

For assay [14], the target named is T7, DFNB31_2, Q9P202.
T7 sequence (Q9P202 274-371, limits assumed, looked up): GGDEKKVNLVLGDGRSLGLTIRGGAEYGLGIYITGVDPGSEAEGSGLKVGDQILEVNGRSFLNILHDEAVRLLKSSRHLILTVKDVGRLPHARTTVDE

Assay [15] deals with Inadl_3, Q8NI35.
Assay [16] deals with T8, MPDZ_10, O75970.
T8 sequence (O75970 1624-1722, limits assumed, looked up): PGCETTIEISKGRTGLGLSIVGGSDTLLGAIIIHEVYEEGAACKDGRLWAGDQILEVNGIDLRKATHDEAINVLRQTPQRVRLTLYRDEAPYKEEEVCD

In assay [17] the target is FRMPD2_1, Q68DX3.
The target of assay [18] is T9, DLG3_1, Q92796.
T9 sequence (Q92796 125-227, limits assumed, looked up): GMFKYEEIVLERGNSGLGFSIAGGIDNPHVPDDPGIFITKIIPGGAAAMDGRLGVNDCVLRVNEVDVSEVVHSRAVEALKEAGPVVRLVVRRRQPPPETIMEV

For assay [19], the target named is T10, MPDZ_12, O75970.
T10 sequence (O75970 1857-1958, limits assumed, looked up): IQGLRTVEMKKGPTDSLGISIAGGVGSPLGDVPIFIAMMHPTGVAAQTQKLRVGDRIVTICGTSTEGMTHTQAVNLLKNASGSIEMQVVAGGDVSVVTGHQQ

The target of assay [20] is DLG5_1, Q8TDM6.
The target in assay [21] is T11, CARD11, Q9BXL7.
T11 sequence (Q9BXL7 662-765, limits assumed, looked up): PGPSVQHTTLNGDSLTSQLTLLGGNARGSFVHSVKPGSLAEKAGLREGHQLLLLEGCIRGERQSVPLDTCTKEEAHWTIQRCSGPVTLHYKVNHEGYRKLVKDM

Assay [22] addresses IL16_3, Q14005.
Assay [23] addresses T12, LNX2_2, Q8N448.
T12 sequence (Q8N448 334-432, limits assumed, looked up): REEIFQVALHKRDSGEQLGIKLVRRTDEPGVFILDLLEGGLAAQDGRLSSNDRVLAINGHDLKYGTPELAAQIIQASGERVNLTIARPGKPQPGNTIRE

The target of assay [24] is LIMK2, P53671.
Where [25] appears, read: plain residues with an end cap or a label only (N-terminal biotin on a linker: ado-ado, ttds).
Setting [26] is: plain residues with an end cap or a label only (N-terminal biotin on a linker: ttds).
Setting [27] is: plain residues with an end cap or a label only (N-terminal biotin on a linker: ahx).

Sequence of MAGI2_4, Q86UL8 (Q86UL8 772-865): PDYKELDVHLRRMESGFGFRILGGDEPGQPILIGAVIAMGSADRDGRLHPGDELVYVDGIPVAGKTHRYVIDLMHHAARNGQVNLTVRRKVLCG
Sequence of SCRIB_3, Q14160 (Q14160 999-1103): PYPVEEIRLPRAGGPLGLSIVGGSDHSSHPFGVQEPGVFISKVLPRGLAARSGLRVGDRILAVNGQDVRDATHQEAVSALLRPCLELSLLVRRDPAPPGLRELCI
Sequence of DLG5_1, Q8TDM6 (Q8TDM6 617-713): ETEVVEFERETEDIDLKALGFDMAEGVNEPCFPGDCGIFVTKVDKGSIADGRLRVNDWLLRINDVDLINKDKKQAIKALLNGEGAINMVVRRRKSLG
Sequence of FRMPD2_1, Q68DX3 (Q68DX3 770-861): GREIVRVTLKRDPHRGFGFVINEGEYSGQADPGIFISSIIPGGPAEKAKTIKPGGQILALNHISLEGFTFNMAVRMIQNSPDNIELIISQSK
Sequence of IL16_3, Q14005 (Q14005 1107-1207): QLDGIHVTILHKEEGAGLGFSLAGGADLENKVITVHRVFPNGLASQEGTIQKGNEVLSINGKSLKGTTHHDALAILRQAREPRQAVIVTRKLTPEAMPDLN
Sequence of Inadl_8, Q8NI35 (Q8NI35 1425-1530): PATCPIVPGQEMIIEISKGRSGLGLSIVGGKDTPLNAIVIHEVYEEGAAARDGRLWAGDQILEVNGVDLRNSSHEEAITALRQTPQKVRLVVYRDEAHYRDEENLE
Sequence of NHERF4_1, Q86UT5-2 (Q86UT5 other isoform, or with tags, fused parts or gaps): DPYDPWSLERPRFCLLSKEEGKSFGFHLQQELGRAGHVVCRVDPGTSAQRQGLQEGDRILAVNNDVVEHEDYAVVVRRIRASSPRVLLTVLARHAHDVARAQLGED
Sequence of GRIP2_4, Q9C0E4 (Q9C0E4 446-548): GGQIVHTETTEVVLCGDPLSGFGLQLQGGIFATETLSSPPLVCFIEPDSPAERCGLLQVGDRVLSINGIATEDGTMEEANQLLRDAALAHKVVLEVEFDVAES
Sequence of MAGI1_1, Q96QZ7 (Q96QZ7 1-106): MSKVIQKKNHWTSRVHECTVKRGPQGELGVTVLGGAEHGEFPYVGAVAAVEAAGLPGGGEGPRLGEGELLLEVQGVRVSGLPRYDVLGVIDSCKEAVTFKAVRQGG
Sequence of Inadl_3, Q8NI35 (Q8NI35 359-469): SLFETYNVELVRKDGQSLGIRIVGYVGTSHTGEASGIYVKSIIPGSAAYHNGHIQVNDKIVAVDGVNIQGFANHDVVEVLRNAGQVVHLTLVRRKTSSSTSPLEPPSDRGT
Sequence of LIMK2, P53671 (P53671 143-248): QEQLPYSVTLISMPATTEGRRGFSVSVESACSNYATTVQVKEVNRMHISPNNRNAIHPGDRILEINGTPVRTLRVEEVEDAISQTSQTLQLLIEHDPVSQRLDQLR

One may read the pKd as the Kd on a negative log10 scale, so that one unit is a factor of ten. As for SNAKAVETDV [KCNA4, P22459], the pKd entry in assay [1] (setting [25]) was “below the threshold”; in [2] (setting [25]) it was “below the threshold”; in assay [3] (setting [25]), “below the threshold”; in [4] (setting [25]), 4.49; in assay [5] (setting [25]), 4.32; in assay [6] (setting [25]) it was 3.79. For the same molecule, the pKd entry in assay [7] (setting [25]) was “below the threshold”; in assay [8] (setting [25]) it was 4.8; in assay [9] (setting [25]) it was “below the threshold”; in [10] (setting [25]) it was 4.72; in [11] (setting [25]), “below the threshold”; in assay [12] (setting [25]), “below the threshold”. The pKd is 4.28 in [13] (setting [25]); “below the threshold” in [14] (setting [25]); 3.51 in assay [15] (setting [25]); “below the threshold” in [16] (setting [25]); “below the threshold” in assay [17] (setting [25]); 4.25 in assay [18] (setting [25]). Moreover, the pKd result is “below the threshold” in [19] (setting [25]); “below the threshold” in assay [20] (setting [25]); 3.55 in assay [21] (setting [25]); “below the threshold” in [22] (setting [25]); 3.51 in assay [23] (setting [25]); “below the threshold” in assay [24] (setting [25]).

For the molecule SSIDLWETAL [SLC15A5, A6NIM6], the pKd in assay [1] (setting [26]) is 4.97; in assay [2] (setting [26]), “below the threshold”; in [3] (setting [26]), “below the threshold”; in assay [4] (setting [26]), 5.24; in [5] (setting [26]), 4.11; in assay [6] (setting [26]), “below the threshold”. The pKd is 4.71 in [7] (setting [26]); 5.71 in [8] (setting [26]); “below the threshold” in assay [9] (setting [26]); 4.43 in assay [10] (setting [26]); “below the threshold” in assay [11] (setting [26]); 3.78 in assay [12] (setting [26]). Moreover, the pKd in [13] (setting [26]) is 5.2; in assay [14] (setting [26]), “below the threshold”; in assay [15] (setting [26]) it was 4.66; in [16] (setting [26]), “below the threshold”; in [17] (setting [26]), “below the threshold”; in assay [18] (setting [26]), 3.87. In addition, the pKd entry in assay [19] (setting [26]), in assay [20] (setting [26]), in [21] (setting [26]), in assay [22] (setting [26]), in assay [23] (setting [26]) and in [24] (setting [26]) was “below the threshold” throughout.

Turning to PPRQRSETQV [HPV82-E6, Q9IR59], the pKd entry is “below the threshold” in assay [1] (setting [26]); “below the threshold” in [2] (setting [26]); “below the threshold” in [3] (setting [26]); 4.14 in assay [4] (setting [26]); “below the threshold” in [5] (setting [26]); 4.72 in assay [6] (setting [26]). The pKd result in assay [7] (setting [26]) is “below the threshold”; in assay [8] (setting [26]) it was 4.05; in [9] (setting [26]), “below the threshold”; in assay [10] (setting [26]), 4.75; in assay [11] (setting [26]), “below the threshold”; in assay [12] (setting [26]), 3.34. The pKd in [13] (setting [26]) is 4; in [14] (setting [26]) it was “below the threshold”; in assay [15] (setting [26]) it was “below the threshold”; in assay [16] (setting [26]), “below the threshold”; in [17] (setting [26]), 3.5; in assay [18] (setting [26]), 4.12. Further, the pKd result is “below the threshold” in [19] (setting [26]); “below the threshold” in assay [20] (setting [26]); “below the threshold” in assay [21] (setting [26]); “below the threshold” in assay [22] (setting [26]); 3.73 in assay [23] (setting [26]); “below the threshold” in assay [24] (setting [26]).

For SKKNELFSNL [NHERF1, O14745], the pKd entry in assay [1] (setting [27]) was “below the threshold”; in [2] (setting [27]), “below the threshold”; in [3] (setting [27]), “below the threshold”; in assay [4] (setting [27]), “below the threshold”; in [5] (setting [27]) it was 4.38; in [6] (setting [27]), “below the threshold”. For the same molecule, the negative logarithm of the Kd (pKd) result in assay [7] (setting [27]), in assay [8] (setting [27]), in [9] (setting [27]), in assay [10] (setting [27]), in assay [11] (setting [27]) and in assay [12] (setting [27]) was “below the threshold” each time. In addition, the pKd result in [13] (setting [27]), in assay [14] (setting [27]), in [15] (setting [27]), in assay [16] (setting [27]), in assay [17] (setting [27]) and in assay [18] (setting [27]) was “below the threshold” in each case. Besides, the pKd entry in [19] (setting [27]), in [20] (setting [27]), in [21] (setting [27]), in [22] (setting [27]), in [23] (setting [27]) and in assay [24] (setting [27]) was “below the threshold” throughout.
